Test results published in paper PMC9820303, “^αN-Acetyl β-Endorphin Is an Endogenous Ligand of σ1Rs That Regulates Mu-Opioid Receptor Signaling by Exchanging G Proteins for σ2Rs in σ1R Oligomers” (International Journal of Molecular Sciences, 2022).

Target: T1, σ1R oligomers-G proteins (Gi2, Go, Gq-11, Gz) (Mus musculus, UniProt O55242)
T1 construct: The coding region of the full-length murine σ1R (AF004927); GST (N); made in house; host or cells: E. coli BL21 (KRX) for σ1R; the G proteins come from solubilised mouse cerebral cortex synaptosomal membranes
T1 sequence (O55242 whole entry): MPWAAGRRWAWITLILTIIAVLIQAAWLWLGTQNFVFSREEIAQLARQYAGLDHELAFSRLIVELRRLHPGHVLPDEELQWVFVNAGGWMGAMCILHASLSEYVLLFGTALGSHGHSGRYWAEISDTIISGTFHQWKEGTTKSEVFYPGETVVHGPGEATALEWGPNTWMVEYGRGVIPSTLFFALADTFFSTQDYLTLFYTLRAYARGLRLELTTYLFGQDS
Assay: Ex vivo fishing assay: G proteins of mouse solubilized brain membranes (SBM) bound to agarose-σ1R oligomers
Format: biochemical
Conditions: for effect on G protein binding to agarose-σ1R oligomers: 2 h, increasing concentrations, n = 3
Method: (A) The effect of σ1R deletion on opioid- and cannabinoid-induced analgesia. Analgesic compounds were icv-injected into wild-type and σ1R^−/− mice, and analgesia was evaluated 30 min after morphine (3 nmol) and β-End 1–31 (0.5 nmol), 15 min after DAMGO (0.1 nmol) and DPDPE (10 nmol) and 10 min after WIN55,212-2 (15 nmol). The bars are the mean ± SD of eight mice per strain and treatment. * Significant difference with respect to the effect of the analgesic substance in the wild-type group. ANOVA followed by the Holm–Sidak multiple comparisons test, p < 0.05, 1-β > 0.80. (B) Coprecipitation of G proteins with MORs. Solubilized mouse brain cortical membranes enriched in synaptosomes (SBM) from CD1 wild-type (WT) and σ1R^−/− mice were solubilized with sonication in the presence of 1% NP-40. Non-soluble debris was eliminated, and the samples were then incubated overnight at 4 °C with affinity-purified biotinylated IgGs that were raised against extracellular regions of the MOR. Protein complexes that were immunoprecipitated with streptavidin agarose were extensively washed and then resolved by SDS-PAGE. The target G proteins, alpha and beta subunits, were visualized by Western blotting (for further details, see Section 4). IP: immunoprecipitated protein, WB: Western blot. Detection of MORs: these proteins were detected with an anti-MOR antibody directed to the C-terminal sequence, a different amino acid sequence than that used for immunoprecipitation (second extracellular loop-2EL). In parallel blots, an antibody directed to the light IgG chain of the anti-MOR antibodies used for immunoprecipitation of MORs provided a loading control for the samples in the gels. […] The immunosignals of Gα subunits coprecipitated with MORs were referred to those of the MORs. Data are the mean ± SD of three determinations. ANOVA followed by the Holm–Sidak multiple comparisons test, p < 0.05, 1-β > 0.80. (C) Pull-down assays using mouse SBM. Cerebral cortex fractions enriched in synaptosomes from CD1 WT mice were solubilized with RIPA buffer and incubated for 2 h with recombinant σ1Rs covalently attached to agarose-NHS (Θ-σ1R). Agarose pellets containing the bound proteins were resolved by SDS-PAGE, and the G protein α subunits were probed in Western blots. The capture of σ1Rs and σ2Rs by Θ-σ1R was also determined in SBM from WT, σ1R^−/− and σ2R^−/− mice. […] Representative blots are shown. (D) Effect of ligands on the association of endogenous G proteins present in mouse SBM with Θ-σ1R oligomers produced in vitro (see Section 4). The Θ-σ1Rs were incubated with the SBM in the absence and presence of increasing concentrations of σ1R ligands. The G proteins that remained bound to Θ-σ1R oligomers were determined as in (C). […] For each compound and concentration studied data are the mean ± SD, n = 3. Data were analyzed by pairwise Holm–Sidak multiple comparison tests following ANOVA: p < 0.05, 1-β > 0.80.
For fishing studies, solubilization of neural synaptosomes from cerebral cortices or PAG was carried out at 4 °C in RIPA buffer. The membranes were incubated at 4 °C for 16 h with agitation, and then centrifuged at 10,000× g for 5 min. The supernatant was cleared with 20 μL of Sepharose 4B (#17-0120-01, GE Healthcare) pre-equilibrated for 1 h at 4 °C, followed by centrifugation at 4300× g for 5 min. The σ1R was immobilized through covalent attachment to N-Hydroxysuccinimide (NHS)-activated Sepharose 4 fast flow (4FF, #17-0906-01; GE) according to the manufacturer’s instructions.

Compound | effect on G protein binding to agarose-σ1R oligomers (wild-type SBM) | release of G proteins from σ1R oligomers in the absence of σ2Rs (SBM from σ2R−/− mice) | concentrations needed for Gz to be freed from σ1R oligomers (wild-type SBM) | concentrations releasing Go, Gq-11 and Gi2 proteins from σ1R oligomers (wild-type SBM)
β-End 1–27: β-End 1–31 derivative without 4 C-terminal residues (YGGFMTSEKSQTPLVTLFKNAIIKNAY; Beta-endorphin; UniProt P01189 237-263, looked up, fragment) | showed G-protein-releasing effects |  |  | 
Cl.O=C(OCCN1CCOCC1)C1(c2ccccc2)CCCCC1 [PRE084, 2-(4-morpholinethyl)-1-phenylcyclohexanecarboxylate hydrochloride, reference compound] | did not disrupt G protein binding to σ1R oligomers but increased the binding to Gz proteins |  |  | 
^αN-acetyl β-End 1–31: β-End 1–31 acetylated at N terminal Y1, α position | efficiently released G proteins from agarose-σ1Rs | failed to release G proteins from σ1R oligomers | pM concentrations | fM concentrations
KKGE [β-End 28–31, C-terminal tetrapeptide of β-End 1–31] | showed G-protein-releasing effects |  |  | 
Cc1cc(OCCN2CCOCC2)nn1-c1ccc2ccccc2c1 [S1RA] | exhibited G-protein-releasing effects |  |  | 
β-End 1–26: β-End 1–31 derivative without 5 C-terminal residues (YGGFMTSEKSQTPLVTLFKNAIIKNA; Beta-endorphin; UniProt P01189 237-262, looked up, fragment) | showed G-protein-releasing effects |  |  | 
